# Laboratory results published in patent US20200079833A1 (AstraZeneca / MedImmune, published 2020).
# Starred links: 1 amine or outer side, 2 acyl side, 3 side chain; linkers in the order of their positions; H or OH if unused. Non-standard residues stand in square brackets, D forms with d. Groups on a side chain read outwards from the residue. No end group written: not given here. *: point of attachment. γGlu = O=C(O)[C@H](CCC(=O)[*:2])N[*:1]; Palmitoyl = CCCCCCCCCCCCCCCC(=O)*; αMeF = C[C@](N)(Cc1ccccc1)C(=O)O; αMeK = C[C@](N)(CCCCN)C(=O)O; αMeS = C[C@](N)(CO)C(=O)O; Aib = CC(C)(N)C(=O)O
# T1: GLP-1R (INS1e assay) (UniProt P32301 22-463, limits assumed)
# T1 sequence (looked up): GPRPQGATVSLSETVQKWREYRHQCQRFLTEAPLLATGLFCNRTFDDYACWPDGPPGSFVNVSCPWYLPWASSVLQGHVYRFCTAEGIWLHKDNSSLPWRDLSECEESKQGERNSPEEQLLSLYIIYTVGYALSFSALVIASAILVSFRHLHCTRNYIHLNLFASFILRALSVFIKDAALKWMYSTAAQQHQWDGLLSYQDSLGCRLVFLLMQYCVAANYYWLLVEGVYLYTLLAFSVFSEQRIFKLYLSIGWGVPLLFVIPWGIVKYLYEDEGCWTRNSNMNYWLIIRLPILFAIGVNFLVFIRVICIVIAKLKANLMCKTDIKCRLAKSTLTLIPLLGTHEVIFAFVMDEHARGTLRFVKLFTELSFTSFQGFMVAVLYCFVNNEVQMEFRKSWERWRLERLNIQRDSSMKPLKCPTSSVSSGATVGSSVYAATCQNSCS
# Target: T1, GLP-1R (INS1e assay)
# Experiment: cell-based or functional assay
Binder,INS1e assay EC50 GLP-1 R n1,INS1e assay EC50 GLP-1 R n2,INS1e assay EC50 Mean pM GLP-1R
H[Aib]EGS[αMeF]TSDV[αMeS]S[αMeF]LEGEK([γGlu-Palmitoyl])A[αMeK]E[αMeF]IA[αMeF]VV[αMeK]GG-NH2 (N-terminus assumed; SMILES CCCCCCCCCCCCCCCC(=O)N[C@@H](CCC(=O)NCCCC[C@H](NC(=O)[C@H](CCC(=O)O)NC(=O)CNC(=O)[C@H](CCC(=O)O)NC(=O)[C@H](CC(C)C)NC(=O)[C@](C)(Cc1ccccc1)NC(=O)[C@H](CO)NC(=O)[C@](C)(CO)NC(=O)[C@@H](NC(=O)[C@H](CC(=O)O)NC(=O)[C@H](CO)NC(=O)[C@@H](NC(=O)[C@](C)(Cc1ccccc1)NC(=O)[C@H](CO)NC(=O)CNC(=O)[C@H](CCC(=O)O)NC(=O)C(C)(C)NC(=O)[C@@H](N)Cc1c[nH]cn1)[C@@H](C)O)C(C)C)C(=O)N[C@@H](C)C(=O)N[C@@](C)(CCCCN)C(=O)N[C@@H](CCC(=O)O)C(=O)N[C@@](C)(Cc1ccccc1)C(=O)N[C@H](C(=O)N[C@@H](C)C(=O)N[C@@](C)(Cc1ccccc1)C(=O)N[C@H](C(=O)N[C@H](C(=O)N[C@@](C)(CCCCN)C(=O)NCC(=O)NCC(N)=O)C(C)C)C(C)C)[C@@H](C)CC)C(=O)O) [SEQ ID NO 82],0.151 nM,0.238 nM,195 pM
H[Aib]EGS[αMeF]TSDV[αMeS]SK([γGlu-Palmitoyl])LEGEAA[αMeK]E[αMeF]IA[αMeF]VV[αMeK]GG-NH2 (N-terminus assumed; SMILES CCCCCCCCCCCCCCCC(=O)N[C@@H](CCC(=O)NCCCC[C@H](NC(=O)[C@H](CO)NC(=O)[C@](C)(CO)NC(=O)[C@@H](NC(=O)[C@H](CC(=O)O)NC(=O)[C@H](CO)NC(=O)[C@@H](NC(=O)[C@](C)(Cc1ccccc1)NC(=O)[C@H](CO)NC(=O)CNC(=O)[C@H](CCC(=O)O)NC(=O)C(C)(C)NC(=O)[C@@H](N)Cc1c[nH]cn1)[C@@H](C)O)C(C)C)C(=O)N[C@@H](CC(C)C)C(=O)N[C@@H](CCC(=O)O)C(=O)NCC(=O)N[C@@H](CCC(=O)O)C(=O)N[C@@H](C)C(=O)N[C@@H](C)C(=O)N[C@@](C)(CCCCN)C(=O)N[C@@H](CCC(=O)O)C(=O)N[C@@](C)(Cc1ccccc1)C(=O)N[C@H](C(=O)N[C@@H](C)C(=O)N[C@@](C)(Cc1ccccc1)C(=O)N[C@H](C(=O)N[C@H](C(=O)N[C@@](C)(CCCCN)C(=O)NCC(=O)NCC(N)=O)C(C)C)C(C)C)[C@@H](C)CC)C(=O)O) [SEQ ID NO 87],0.0436 nM,0.0622 nM,53 pM
H[Aib]EGS[αMeF]TSDV[αMeS]S[αMeF]LEGK([γGlu-Palmitoyl])AA[αMeK]E[αMeF]IA[αMeF]VV[αMeK]GG-NH2 (N-terminus assumed; SMILES CCCCCCCCCCCCCCCC(=O)N[C@@H](CCC(=O)NCCCC[C@H](NC(=O)CNC(=O)[C@H](CCC(=O)O)NC(=O)[C@H](CC(C)C)NC(=O)[C@](C)(Cc1ccccc1)NC(=O)[C@H](CO)NC(=O)[C@](C)(CO)NC(=O)[C@@H](NC(=O)[C@H](CC(=O)O)NC(=O)[C@H](CO)NC(=O)[C@@H](NC(=O)[C@](C)(Cc1ccccc1)NC(=O)[C@H](CO)NC(=O)CNC(=O)[C@H](CCC(=O)O)NC(=O)C(C)(C)NC(=O)[C@@H](N)Cc1c[nH]cn1)[C@@H](C)O)C(C)C)C(=O)N[C@@H](C)C(=O)N[C@@H](C)C(=O)N[C@@](C)(CCCCN)C(=O)N[C@@H](CCC(=O)O)C(=O)N[C@@](C)(Cc1ccccc1)C(=O)N[C@H](C(=O)N[C@@H](C)C(=O)N[C@@](C)(Cc1ccccc1)C(=O)N[C@H](C(=O)N[C@H](C(=O)N[C@@](C)(CCCCN)C(=O)NCC(=O)NCC(N)=O)C(C)C)C(C)C)[C@@H](C)CC)C(=O)O) [SEQ ID NO 83],0.137 nM,0.25 nM,194 pM
H[Aib]EGS[αMeF]TSDV[αMeS]S[αMeF]LEK([γGlu-Palmitoyl])EAA[αMeK]E[αMeF]IA[αMeF]VV[αMeK]GG-NH2 (N-terminus assumed; SMILES CCCCCCCCCCCCCCCC(=O)N[C@@H](CCC(=O)NCCCC[C@H](NC(=O)[C@H](CCC(=O)O)NC(=O)[C@H](CC(C)C)NC(=O)[C@](C)(Cc1ccccc1)NC(=O)[C@H](CO)NC(=O)[C@](C)(CO)NC(=O)[C@@H](NC(=O)[C@H](CC(=O)O)NC(=O)[C@H](CO)NC(=O)[C@@H](NC(=O)[C@](C)(Cc1ccccc1)NC(=O)[C@H](CO)NC(=O)CNC(=O)[C@H](CCC(=O)O)NC(=O)C(C)(C)NC(=O)[C@@H](N)Cc1c[nH]cn1)[C@@H](C)O)C(C)C)C(=O)N[C@@H](CCC(=O)O)C(=O)N[C@@H](C)C(=O)N[C@@H](C)C(=O)N[C@@](C)(CCCCN)C(=O)N[C@@H](CCC(=O)O)C(=O)N[C@@](C)(Cc1ccccc1)C(=O)N[C@H](C(=O)N[C@@H](C)C(=O)N[C@@](C)(Cc1ccccc1)C(=O)N[C@H](C(=O)N[C@H](C(=O)N[C@@](C)(CCCCN)C(=O)NCC(=O)NCC(N)=O)C(C)C)C(C)C)[C@@H](C)CC)C(=O)O) [SEQ ID NO 84],0.455 nM,0.665 nM,560 pM
H[Aib]EGS[αMeF]TSDV[αMeS]S[αMeF]LEGEAAK([γGlu-Palmitoyl])E[αMeF]IA[αMeF]VV[αMeK]GG-NH2 (N-terminus assumed; SMILES CCCCCCCCCCCCCCCC(=O)N[C@@H](CCC(=O)NCCCC[C@H](NC(=O)[C@H](C)NC(=O)[C@H](C)NC(=O)[C@H](CCC(=O)O)NC(=O)CNC(=O)[C@H](CCC(=O)O)NC(=O)[C@H](CC(C)C)NC(=O)[C@](C)(Cc1ccccc1)NC(=O)[C@H](CO)NC(=O)[C@](C)(CO)NC(=O)[C@@H](NC(=O)[C@H](CC(=O)O)NC(=O)[C@H](CO)NC(=O)[C@@H](NC(=O)[C@](C)(Cc1ccccc1)NC(=O)[C@H](CO)NC(=O)CNC(=O)[C@H](CCC(=O)O)NC(=O)C(C)(C)NC(=O)[C@@H](N)Cc1c[nH]cn1)[C@@H](C)O)C(C)C)C(=O)N[C@@H](CCC(=O)O)C(=O)N[C@@](C)(Cc1ccccc1)C(=O)N[C@H](C(=O)N[C@@H](C)C(=O)N[C@@](C)(Cc1ccccc1)C(=O)N[C@H](C(=O)N[C@H](C(=O)N[C@@](C)(CCCCN)C(=O)NCC(=O)NCC(N)=O)C(C)C)C(C)C)[C@@H](C)CC)C(=O)O) [SEQ ID NO 80],3.89 nM,1.33 nM,2610 pM
HXEGSFTSDVSKFLEGEAAKEFIAFVVKGG (Aib2; α-MeF6; α-MeS11; K12(ε-γE-Palmitoyl); α-MeF13; α-MeK20; α-MeF22; α-MeF25; α-MeK28; C-terminal amide) [SEQ ID NO 88],0.277 nM,0.415 nM,346 pM
H[Aib]EGS[αMeF]TSDV[αMeS]S[αMeF]K([γGlu-Palmitoyl])EGEAA[αMeK]E[αMeF]IA[αMeF]VV[αMeK]GG-NH2 (N-terminus assumed; SMILES CCCCCCCCCCCCCCCC(=O)N[C@@H](CCC(=O)NCCCC[C@H](NC(=O)[C@](C)(Cc1ccccc1)NC(=O)[C@H](CO)NC(=O)[C@](C)(CO)NC(=O)[C@@H](NC(=O)[C@H](CC(=O)O)NC(=O)[C@H](CO)NC(=O)[C@@H](NC(=O)[C@](C)(Cc1ccccc1)NC(=O)[C@H](CO)NC(=O)CNC(=O)[C@H](CCC(=O)O)NC(=O)C(C)(C)NC(=O)[C@@H](N)Cc1c[nH]cn1)[C@@H](C)O)C(C)C)C(=O)N[C@@H](CCC(=O)O)C(=O)NCC(=O)N[C@@H](CCC(=O)O)C(=O)N[C@@H](C)C(=O)N[C@@H](C)C(=O)N[C@@](C)(CCCCN)C(=O)N[C@@H](CCC(=O)O)C(=O)N[C@@](C)(Cc1ccccc1)C(=O)N[C@H](C(=O)N[C@@H](C)C(=O)N[C@@](C)(Cc1ccccc1)C(=O)N[C@H](C(=O)N[C@H](C(=O)N[C@@](C)(CCCCN)C(=O)NCC(=O)NCC(N)=O)C(C)C)C(C)C)[C@@H](C)CC)C(=O)O) [SEQ ID NO 86],0.0453 nM,0.0845 nM,65 pM
H[Aib]EGS[αMeF]TSDK([γGlu-Palmitoyl])[αMeS]S[αMeF]LEGEAA[αMeK]E[αMeF]IA[αMeF]VV[αMeK]GG-NH2 (N-terminus assumed; SMILES CCCCCCCCCCCCCCCC(=O)N[C@@H](CCC(=O)NCCCC[C@H](NC(=O)[C@H](CC(=O)O)NC(=O)[C@H](CO)NC(=O)[C@@H](NC(=O)[C@](C)(Cc1ccccc1)NC(=O)[C@H](CO)NC(=O)CNC(=O)[C@H](CCC(=O)O)NC(=O)C(C)(C)NC(=O)[C@@H](N)Cc1c[nH]cn1)[C@@H](C)O)C(=O)N[C@@](C)(CO)C(=O)N[C@@H](CO)C(=O)N[C@@](C)(Cc1ccccc1)C(=O)N[C@@H](CC(C)C)C(=O)N[C@@H](CCC(=O)O)C(=O)NCC(=O)N[C@@H](CCC(=O)O)C(=O)N[C@@H](C)C(=O)N[C@@H](C)C(=O)N[C@@](C)(CCCCN)C(=O)N[C@@H](CCC(=O)O)C(=O)N[C@@](C)(Cc1ccccc1)C(=O)N[C@H](C(=O)N[C@@H](C)C(=O)N[C@@](C)(Cc1ccccc1)C(=O)N[C@H](C(=O)N[C@H](C(=O)N[C@@](C)(CCCCN)C(=O)NCC(=O)NCC(N)=O)C(C)C)C(C)C)[C@@H](C)CC)C(=O)O) [SEQ ID NO 90],0.0434 nM,0.0586 nM,51 pM
